Assay [1] deals with T1, MURF-1 (Muscle RING Finger 1), native protein without epitope tag (murine, UniProt Q9ERP3 1-366).
T1 construct: 366 amino acid protein, 41 kDa; also called endogenous MURF-1; native MURF-1
T1 sequence: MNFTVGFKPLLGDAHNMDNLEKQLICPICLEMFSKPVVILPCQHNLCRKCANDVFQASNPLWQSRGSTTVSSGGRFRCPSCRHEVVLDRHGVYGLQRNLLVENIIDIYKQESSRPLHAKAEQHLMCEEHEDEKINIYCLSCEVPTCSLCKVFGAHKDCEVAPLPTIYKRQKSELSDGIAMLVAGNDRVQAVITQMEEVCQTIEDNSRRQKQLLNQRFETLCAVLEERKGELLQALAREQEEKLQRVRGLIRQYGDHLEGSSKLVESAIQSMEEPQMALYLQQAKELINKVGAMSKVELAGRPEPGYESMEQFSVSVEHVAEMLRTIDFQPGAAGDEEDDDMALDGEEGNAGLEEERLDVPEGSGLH
In words: immunofluorescence in cotransfected Hela cells, legend of FIGS. 6B-D. An excerpt:
(§1) The leucine-rich coiled-coil domain mediates homo-oligomerization of MURF-1. FIGS. 6B-D. MURF-1 binds to microtubules in a homo-oligomeric form. Hela Cells were transfected with Flag-tagged full-length MURF alone (FIG. 6B) or in combination with myc-tagged MURF-1 (FIGS. 6C and 6D) and immunofluorescence performed. Flag-tagged MURF-1 forms aggregates in the cytoplasm of the cell. In the presence of myc-tagged MURF-1, the Flag-tagged MURF-1 and myc-tagged MURF-1 are colocalized in filamentous structures in the cell. Identical results were obtained using native MURF-1 lacking an epitope tag.
For immunofluorescence, cells were extracted with 1% Triton X-100 in PBS for 1 minute, washed twice in PBS, and fixed for 15 minutes in 3.7% formalin in PBS. Cells were then washed three times in PBS and blocked in PBS containing 3% Bovine Serum Albumin and 0.1% NP40 for 30 minutes. All antibodies were incubated in fresh block solution for 60 minutes at ambient temperature. Myc-tagged versions of MURF-1 were detected using antibody 9E10 (Santa Cruz) at a dilution of 1:250. Flag-tagged versions of MURF-1 were detected using the M2 Flag antibody at a dilution of 1:500 (Kodak). Microtubules were detected using alpha-tubulin antibody at a dilution of 1:2000 (Sigma). Intermediate filaments were visualized using vimentin antibody at a dilution of 1:500 (Sigma). […]

Assay [2] addresses T2, full-length MURF-1 with C-terminal myc tag (murine, UniProt Q9ERP3 1-366).
T2 construct: Expressed in transfected cells (Hela, Cos, 293T and others) or translated in vitro with 35S-methionine; also called myc-tagged MURF-1; myc-tagged MURF; not shown: C-terminal myc/HIS tag of vector pcDNA3.1 myc/HIS (Invitrogen)
T2 sequence: T1 sequence
In words: co-immunoprecipitation of 35S-labeled in vitro translated myc-tagged and Flag-tagged MURF-1 with Flag antibody M2.
From the text: as §1, with “FIGS. 6A-6D—Mapping domains of MURF-1 required for homo-oligomerization. FIG. 6A. Various forms of N-terminal Flag-tagged MURF-1 and full-length C-terminal myc-tagged MURF-1 were in vitro translated in the presence of ³⁵S-methionine and immunoprecipitation performed as described in Material and Methods. The” for “The”
In vitro transcription/translation was performed as directed by the manufacturer (Promega). Plasmids used were C-terminally myc-tagged full-length MURF-1 and various Flag-tagged deletions of MURF-1. Immunoprecipitations were performed using ³⁵S-methionine-labelled in vitro translation products. Briefly, ³⁵S-methionine-labelled products were incubated with agitation in 1 ml of immunoprecipitation buffer (PBS, 0.5% Triton X-100, 0.25 mM zinc sulphate) at 4° C. for 2 hours. […]

B1: full-length MURF-1 with N-terminal Flag tag (other)
chain: T1 sequence
notes: Translated in vitro with 35S-methionine for immunoprecipitation, or expressed in Hela cells; also called Flag-tagged MURF-1; Flag-MURF-1; not shown: N-terminal Flag tag (vector pECE-Flag, subcloned into pcDNA3.1)
As for B1, the binding result in assay [1] and in assay [2] was “binds” in each case.

Values taken from patent publication US20040132160A1 (University of Texas, published 2004).
